Test [1] deals with RSV postfusion F (postF, F deltaFP) (Respiratory syncytial virus). Kind of test: BLI, IgG on sensor, 100 nM antigen.
In test [2] the target is RSV prefusion F (preF, DS-Cav1) (Respiratory syncytial virus). In words: BLI, IgG on sensor, 100 nM antigen.

We go through 19 molecules from patent US20260258115A1.

B1: ADI-41304 (antibody, V domains shown)
VH: EVQLVESGPGLVKPSQTLSLTCTVSGGSIRSHDYYWSWIRQPPGKGLEWIGYSYYSGSTYYNPSLKSRVIISLDTSKNQFSLNLTSVTAADTAMYYCARDRPHTSSWIPGWFDPWGQGTLVTVSS
VL: SYELTQPPSASGTPGQRVTISCSGSSSNIGSNTVSWYQQFPGKAPKLLIYSNNERPSGGPDRFSGSKSGTSASLAIGGLQSEDEANYYCAAWDDSLYAVVFGGGTKLTVL
For the molecule B1, the figures for the dissociation constant Kd in test [1] and in test [2] were 0.33 nM and 0.338 nM, respectively.

B2: ADI-41309 (antibody, V domains shown)
VH: EVQLLESGPGLVKPSQTLSLTCTVSGGSISSGDYYWSWVRQPPGKGLEWIGNIYHSGSTYYKPSLKSRVSISLDTSKNQFSLKLSSVTAADTAIYYCARDGGENYVWGTFRFLDVWGQGTTVTVSS
VL: DIRLTQSPGTLSLSPGERATLSCRASQSVSSSYLAWYQQKPGQAPRLLIYGVSSRATGIPDRFSGSGSGTDFTLTINRLEPEDFALYHCQQYGSSPHTFGQGTKVEIK
As to B2, the Kd was 1.36 nM in test [1] and 4.34 nM in test [2].

B3: ADI-41316 (antibody, V domains shown)
VH: QVQLVQSGGGVVQPGRSLRLSCAASGFTFNNYGMHWVRQAPGKGLEWVAVLSFDGINKYYADSARGRFTISRDNSKNTLYLQMNSLRAEDTALYYCAKDRQEYSSGWTHDACDIWGQGTMVTVSS
VL: EIVMTQSPATLSVSPGERATLSCRASQNVNNNLAWYQQNPGQAPRLLIFGASTRATGIPARFSGSGSGTEFTLTISSLQSEDFAVYYCQQYNNWPRTFGQGTKLEIK
In the case of B3, the Kd in test [1] was found to be 1.05 nM; in test [2], 3.74 nM.

B4: ADI-41297 (antibody, V domains shown)
VH: QVQLVQSGAEVKKPGSSVKVSCKASGGTFSTDAISWVRQAPGQGLEWMGGIIPLFGTANYAQKFQGRVTITADESTSTAYMELNSLRSVDTAVYYCGRTGAFDGEVVVRPHLDLWGQGTLVTVSS
VL: QPVLTQPASVSGSPGQSITISCTGTSSDVGGYDYVSWYQHHPGKAPKLMIYEVSNRPSGVSNRFSGSKSGNTASLTISGLQADDEAAYYCSSYTRSNTLLFGGGTKLTVL
Take B4: the Kd in test [1] worked out at 0.628 nM; in test [2], 3.91 nM.

B5: ADI-41307 (antibody, V domains shown)
VH: QVQLVESGGGLVKPGGSLRLSCAASGFPLSPYALNWVRQAPGKGLEWVSSITSSSAYIYYADSVKGRFTVSRDNPTNSLYLQMNSLRAEDTAVYYCARTIPQHYYDNNGDYYNYGMDVWGQGTTVTVSS
VL: DIVLTQSPATLSVSPGQRITLSCRASQTVRSNLAWYQQKPGQPPRLLIYGASTRATGVPARFTGSGSGTEFTLTITSLQSDDFAVYYCHQYNDRPLTFGPGTKVEIK
Turning to B5, the results for the Kd in test [1] and in test [2] were 0.83 nM and 2.99 nM, respectively.

B6: ADI-41323 (antibody, V domains shown)
VH: EVQLLESGGGVVRPGGSLRLSCAASGFTFDDYAMGWVRQAPGKGLEWVSGITWNAGSTAYAGSVKGRFTISRDNAKNSLFLQMNSLRAEDTAFYLCARHVDSSGPVARHFDYWGQGTLVTVSS
VL: NFMLTQPHSVSESPGKTVTISCTRSSGSIARNYVQWYQQRPGSAPTIVIYEDNQRPSGVPDRFSGSIDSSSNSASLTISGLKTEDEADYYCQSYDPSNVVFGGGTKLTVL
As to B6, the Kd was 0.331 nM in test [1] and 1.95 nM in test [2].

B7: ADI-41308 (antibody, V domains shown)
VH: EVQLVESGPGLVKPSQTLSLTCAISGDSVSSNSAAWNWIRQSPSRGLERMGRTYYRSKWYDDYAVSVKSRIIINPDTSKNQFSLQLNSVTPEDTAVYYCARGISTFGGVIYALEIWGQGTMVTVSS
VL: SYVLTQPASVSGSPGQSITISCTGLTSDVGGYNFVSWYQQHPGKAPKLIIYDVSHRPSGVSNRFSGSESGNTASLTISGLQAEDEAHYYCSSYTRTSIVVFGGGTKLTVL
Turning to B7, the values for the Kd in test [1] and in test [2] were 0.519 nM and 4 nM, respectively.

B8: ADI-41303 (antibody, V domains shown)
VH: QVQLVQSGGGLVRPGGSLRVSCAASGFIFNNYALTWVRQAPGKGLEWVSAISGSGSSTYYADSVKGRFTISRENSNNRLYLQLSGLRAEDTAVYFCARVRGLVWFEGRIDPYPNVFDYWGQGTLVTVSS
VL: DIVLTQSPGTLSLSPGERATLSCRASQSVSNDYLAWYQQKPGQAPRLLIYDASSRAIGIPDRFSGSGSGTDFTLIISRLEPEDFAVYYCHHPGKFGQGTKVEIK
On to B8, for which the Kd in test [1] is 0.944 nM; in test [2], 2.96 nM.

B9: ADI-41311 (antibody, V domains shown)
VH: QVTLKQSGPALVKPTQTLTLTCTFSGFSLSTKRMGVSWIRQPPGKALEWLARIDWDDDKYYSTSLRTRLTISKDTSKNQVVLTMTDMDPVDTATYYCARIQPYTSGGYYSYYFDYWGQGTLVTVSS
VL: DIQVTQSPSSLSASIGDRVTITCRASQTIASYLNWYQQKPGKAPKLLIYIASSLQSGVPSRFSGSGSGTDFTLTISTLQPEDFATYYCQQSYGTPWTFGQGTKVEIK
For the molecule B9, the Kd came to 0.524 nM in test [1] and 0.754 nM in test [2].

B10: ADI-41341 (antibody, V domains shown)
VH: QVQLVQSGAEVKKPGSSVKVSCKASGGTFSSYATHWVRQAPGQGLEWMGGIIPIFGRATYAQKFQGRVTISADESTSTAYMELSSLRSEDTAVYYCARGRDDRSGDHIAFLYHYGMDVWGQGSTVTVSS
VL: QSVLTQPPSVSAAPGQKVSISCSGSSSNIGINHASWYQHLPGTAPKLLIYDNNKRPSGIPDRFSGSKSGTSATLGISGLQTGDEAAYYCGTWDTGLSAVVFGGGTKLTVL
With B10, the Kd was 1.97 nM in test [1] and 2.83 nM in test [2].

B11: ADI-41324 (antibody, V domains shown)
VH: EVQLVESGGGLVQPGGSLRLSCAASGFTVSNNYMRWVRQAPGKGLEWVSVIYSSGSTDYADSVKGRFTISRDNSKNTLYLQMNSLRAEDTAVYYCARERTLFYYDSSGFFDYWGQGTLVTVSS
VL: ETTLTQSPGTLSLSPGERATLSCRASQSVDSSYLAWYQQKPGQAPRLLIYGASNRATGIPDRFSGSGSGTDFTLTISRLEPEDFAVYYCQQYGRSLTFGGGTKLEIK
With B11, the dissociation constant (Kd) in test [1] amounted to 0.426 nM; in test [2], 2.47 nM.

B12: ADI-41318 (antibody, V domains shown)
VH: EVQLLESGAEVKKPGSSVRVSCKAFGGTFSSYAFSWVRQAPGQGLEWMGGITPMFGTENYAPNFQGRVTITADKLTTTVYMELSRLRSEDSAVYYCAREGGRLGTTMGAFDMWGQGTMVTVSS
VL: DIRLTQSPSSLSASVGDRVTITCRASHGISSALAWYQQRPGRVPQVLIFHASTLESGVPSRFSGSGSGTDFTLTISSLQPEDFATYYCQQFNSYPYTFGQGTKVEIK
Turning to B12, the figures for the Kd in test [1] and in test [2] were 35.4 nM and 426 nM, respectively.

B13: ADI-41292 (antibody, V domains shown)
VH: EVQLLESGGGVVQPGRSLRLSCAASGFSFSSYGIHWVRQAPGKGLECVALMSYDGSEKYYADSVKGRFTISRDNSKNTLYLHMNSLRREDTAVYYCAKGSHLRWSHLDYYFHLWGRGTLVTVSS
VL: DIVMTQSPSTLSASVGDRVTITCRASQSLSTWLAWYQQKPGKAPKLLISDASNLESGVPSRFSGRGSGTEFTLTISGLQPDDFATYYCQQERTFGQGTKVDIK
Turning to B13, the dissociation constant (Kd) in test [1] was found to be 195 nM; in test [2] it was 883 nM.

B14: ADI-41314 (antibody, V domains shown)
VH: QVQLVQSGAEVKKPGSSVKVSCKAFGGIFSSYAISWVRQAPGQGLEWMGGIIPIFGTTKYAQKFQGRVTITADKSTSTVYMEVSSLRFEESAVYFCARAYCSGGTWYGGADYWGQGTLVTVSS
VL: QSVLTQPPSVSVSPGQTARITCSGDVLPKQYAYWYQQKPGQAPLLVMYKDTERPSGIPERFSGSSSVTAVTLTISGVQAEDEADYYCQSADSTQELFGGGTKLTVL
Regarding B14, the Kd in test [1] is 0.414 nM; in test [2], 2.41 nM.

B15: ADI-41313 (antibody, V domains shown)
VH: EVQLVESGAEVKKPGASVKVSCKASGYTFNNYDISWVRQAPGQGLEWMGWISTYNGNTNYAQKFQGRATMTTDTSTTTAYMELRSLRSDDSAIYYCARVYCGGDCHNPFFLYFDLWGRGTLVTVSS
VL: SYVLTQPLSVSVALGQTARITCGGNNIGSKSVHWYQQKPGQAPLLVIYRDNNRPSGIPERFSGSTSGNTATLTISRAQAGDEADYSCQVWDNSDWVFGGGTKLTVL
Consider B15, for which the Kd in test [1] stood at 0.342 nM; in test [2], 0.455 nM.

B16: ADI-41293 (antibody, V domains shown)
VH: QVQLQQSGPGLAKPSQTLSLTCTVSGGPISGVDYYWSWIRQPPGKGLEWIGYIYYSGSTYYNPSLKSRVTISVDTSKKQFSLKMSSVTAADTAVYYCARDVGATPYYYYGMDVWGQGTTVTVSS
VL: DIVLTQSPDTLSLSPGERATLSCRASQSVRSNYLAWYQHKPGQAPRLLIYGASSRVAGIPDRFSGSGSGTDFTLTISRLEPEDFAVYYCQQYGSSPPSVTFGGGTKVEIK
Turning to B16, the Kd in test [1] is 0.411 nM; in test [2], 0.496 nM.

B17: ADI-41315 (antibody, V domains shown)
VH: EVQLLESGPGLVKPSETLSLTCAVSGGSISNYYWSWIRQPPGKGLEWIAYISYSGTTNYNPSLESRVTISVDTSKNQFSLKLNSVTAADTAVYYCARHEFLVLPDVWGQGTLVTVSS
VL: ETTLTQSPGTLSLSPGERATLSCRASQSVSSTFLAWYQQKPGQAPRLLIYAASSRATGIPDRFSGSGSGTDFTLIISRLEPEDFAVYYCQQYRSSPFSFGPGTKVEIK
Consider B17, for which the Kd in test [1] is 1.03 nM; in test [2], 2.93 nM.

B18: ADI-41299 (antibody, V domains shown)
VH: EVQLVESGGGLVHPGRSLRLSCGASGFTFRSFAMHWVRQAPGKGLEWVAVISYDGSDEYYADSVKGRFTISRDNSRNTLFLQMNRLRPEDTAIYYCARAYCSTSNCPVLDYWGQGTLVTVSS
VL: QSVLIQPASVSGSPGQSITISCTGTSSDVGGYSLVSWYQQHPGKAPKLIIFEGNKRPAGVSDRFSGSKYGDTASLTISGLQAEDEADYYCCSYAGGHSVFGGGTKVTVL
For the molecule B18, the dissociation constant (Kd) in test [1] came out at 2.25 nM; in test [2], 3.48 nM.

B19: ADI-41306 (antibody, V domains shown)
VH: QVQLVESGPRLVKPSQTLSLTCTVSGGSIYRGDYDWNWIRQPPGKGLEWIGYISYTGNTHYNSSLKSRLSISADTSGTHFSLKLSSVTAADTAIYYCARDVGYGGNAAHYYYYAMDVWGQGTTVTVSS
VL: ETTLTQSPATLSLSPGERATLSCRASQSVGSSLAWYQQKVGQAPRLLIYDASSRVTGIPARFSGSGSGTDFTLTISSLEPGDFAVYYCQQRSNSLTFGGGTKVEIK
Turning to B19, the figures for the Kd in test [1] and in test [2] were 0.454 nM and 0.462 nM, respectively.
